This is an account of results in patent US20160272977, “DNMT Inhibitors” (New England Biolabs, Inc., published 2016).

The target in data set [1] is T1, DNMT1 full-length (Homo sapiens, UniProt P26358 SEQ:1-1616). The data set is described as follows: inhibition; competitive vs hemimethylated DNA. The following applies: tags: baculovirus Sf9.
Data set [2] concerns the target T2, GST-DNMT1 fragment 4 (Homo sapiens, UniProt P26358 SEQ:1081-1408).
T2 chain: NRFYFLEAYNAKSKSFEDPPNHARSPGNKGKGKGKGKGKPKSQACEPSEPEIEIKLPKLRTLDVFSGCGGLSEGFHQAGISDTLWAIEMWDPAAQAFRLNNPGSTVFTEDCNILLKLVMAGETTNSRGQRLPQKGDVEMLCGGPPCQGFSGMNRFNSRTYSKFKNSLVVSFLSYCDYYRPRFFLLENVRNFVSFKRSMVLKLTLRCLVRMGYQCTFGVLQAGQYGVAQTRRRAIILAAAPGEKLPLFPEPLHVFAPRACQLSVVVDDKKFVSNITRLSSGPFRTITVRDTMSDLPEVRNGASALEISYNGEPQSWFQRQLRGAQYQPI
The data set is described as follows: pulldown; lower than HPE variant. The settings on record: tags: N-terminal GST (pGEX-5x-1); label: 5'-33P in pull-down; stem-loop. From the text: (§1) The resulting protein bands are shown in FIG. 1B; asterisks mark the positions of the GST-DNMT1 fusion proteins. GST-DNMT1 fragments were adjusted to the same protein concentration with 50% slurry sepharose beads. RNase inhibitor (New England Biolabs, Ipswich, Mass.) was applied to beads slurry at 40 U/mL immediate before use.
(§2) The GST-DNMT1 fragments exposed to a series of small RNA molecules are depicted in FIG. 1D. The RNA oligos were labelled at the 5′ end with [γ-33P]ATP (PerkinElmer, Waltham, Mass.) using T4 polynucleotide kinase (New England Biolabs, Ipswich, Mass.), and purified with Illustra® ProbeQuant® G-50 Micro Columns (GE Healthcare Life Sciences, Piscataway, N.J.) per the manufacturer's instructions. The binding assay was performed in 50 μL reaction volume containing 20 μL of GST-DNMT1 fragment beads, 5 μL of 5 μM labelled RNA oligo, 5 μL of 10×DNMT1 reaction buffer (New England Biolabs, Ipswich, Mass.) and 20 μL of RNase-free water. After incubation at 37° C. for 10 minutes, beads were washed twice and suspended in 200 μL of PBS. The radioactivity associated with the beads was analyzed by liquid scintillation counting using a Tri-Carb® 2900TR (PerkinElmer, Waltham, Mass.). The amount of RNA oligo bound to beads were calculated by normalizing the scintillation counts of beads to that of 1 pmol labelled RNA oligo.

For data set [3], the target named is T1, DNMT1 full-length. The data set is described as follows: inhibition; mixed inhibition vs AdoMet. The settings on record: tags: baculovirus Sf9. The procedure: For determination of the inhibition pattern and Kᵢ of asCEBPα-2 versus hemimethylated DNA substrate, 20 nM of the DNMT1 enzyme was incubated with 1.328, 0.884, 0.59, 0.394, 0.262, 0.1748 and 0.1168 μM (concentration calculated in terms of hemimethylated CpG) of the 36-bp length hemimethylated DNA substrate with the sequence of (CMeGG•CCG)₁₂ and 5.328 μM of [³H]AdoMet (PerkinElmer, Waltham, Mass.) in the presence of 0, 0.25, 0.5, 1, 2 and 4 μM folded asCEBPα-2 inhibitor RNA in 1×DNMT1 reaction buffer (New England Biolabs, Ipswich, Mass.). The reaction was performed at 37° C. for 30 minutes and DNMT1 enzyme was quenched by flash freezing the reaction mix in a dry ice-methanol bath. The reaction was split into two halves and spotted onto DE81 Whatman® 3658-325 ion exchange filter papers (GE Healthcare Life Sciences, Piscataway, N.J.). The Ki and velocity plots were calculated according to Bacolla, et al., J. Biol. Chem., 274:33011-33019 (1999).
For determination of the inhibition patterns of various test RNAs and Kᵢ for asCEBPα-2 versus AdoMet, reactions were carried out at similar conditions as those described above. […] The nanomolar [³H]CH₃ transferred to hemimethylated DNA substrate was calculated in the same way as in the competitive experiment versus hemimethylated DNA substrate, except that the nanomolar concentration obtained was multiplied by an coefficient of 19.5. […]

Data set [4] concerns the target T1, DNMT1 full-length. The data set is described as follows: inhibition; competitive vs hemimethylated DNA. The settings on record: tags: baculovirus Sf9. The procedure:
Single point biochemistry assays were performed by incubating 10 nM of the DNMT1 enzyme with 1 μM of hemimethylated DNA and 5.328 μM of [³H]AdoMet in the presence of 5.28 μM of folded synthetic RNA oligos. The reaction was done for 15 minutes and radioactivity was counted. [³H]AdoMet incorporation, initial velocity curve and Kᵢ were calculated as described in Example 2.
FIGS. 7C and 7D are representative plots of the inhibitory activity of 5p-5 and 3p-5 at increasing concentrations.
This is another data set of the same source.

Data set [5] concerns the target T1, DNMT1 full-length. The data set is described as follows: inhibition; competitive vs hemimethylated DNA, 37 C. The settings on record: tags: baculovirus Sf9.
Data set [6] deals with T2, GST-DNMT1 fragment 4. The data set is described as follows: pulldown; greater than asCEBPα-1. The settings on record: tags: N-terminal GST (pGEX-5x-1); label: 5'-33P in pull-down.
Excerpt: as §1, §2

The target of data set [7] is T2, GST-DNMT1 fragment 4. Kind of data set: pulldown; most efficient binder of the four. The settings on record: tags: N-terminal GST (pGEX-5x-1); label: 5'-33P in pull-down; predicted to lack stem-loop.
Excerpt: as §1, §2

For data set [8], the target named is T2, GST-DNMT1 fragment 4. Kind of data set: pulldown; GST pull-down, 33P RNA, 37 C; lower than HPE variant. The following applies: tags: N-terminal GST (pGEX-5x-1); label: 5'-33P in pull-down; stem-loop.
Excerpt: as §1, §2

The mark [9] stands for this setting: label: 5'-33P in pull-down, stem-loop.

T1 sequence (P26358 whole entry, the tested form may be a part): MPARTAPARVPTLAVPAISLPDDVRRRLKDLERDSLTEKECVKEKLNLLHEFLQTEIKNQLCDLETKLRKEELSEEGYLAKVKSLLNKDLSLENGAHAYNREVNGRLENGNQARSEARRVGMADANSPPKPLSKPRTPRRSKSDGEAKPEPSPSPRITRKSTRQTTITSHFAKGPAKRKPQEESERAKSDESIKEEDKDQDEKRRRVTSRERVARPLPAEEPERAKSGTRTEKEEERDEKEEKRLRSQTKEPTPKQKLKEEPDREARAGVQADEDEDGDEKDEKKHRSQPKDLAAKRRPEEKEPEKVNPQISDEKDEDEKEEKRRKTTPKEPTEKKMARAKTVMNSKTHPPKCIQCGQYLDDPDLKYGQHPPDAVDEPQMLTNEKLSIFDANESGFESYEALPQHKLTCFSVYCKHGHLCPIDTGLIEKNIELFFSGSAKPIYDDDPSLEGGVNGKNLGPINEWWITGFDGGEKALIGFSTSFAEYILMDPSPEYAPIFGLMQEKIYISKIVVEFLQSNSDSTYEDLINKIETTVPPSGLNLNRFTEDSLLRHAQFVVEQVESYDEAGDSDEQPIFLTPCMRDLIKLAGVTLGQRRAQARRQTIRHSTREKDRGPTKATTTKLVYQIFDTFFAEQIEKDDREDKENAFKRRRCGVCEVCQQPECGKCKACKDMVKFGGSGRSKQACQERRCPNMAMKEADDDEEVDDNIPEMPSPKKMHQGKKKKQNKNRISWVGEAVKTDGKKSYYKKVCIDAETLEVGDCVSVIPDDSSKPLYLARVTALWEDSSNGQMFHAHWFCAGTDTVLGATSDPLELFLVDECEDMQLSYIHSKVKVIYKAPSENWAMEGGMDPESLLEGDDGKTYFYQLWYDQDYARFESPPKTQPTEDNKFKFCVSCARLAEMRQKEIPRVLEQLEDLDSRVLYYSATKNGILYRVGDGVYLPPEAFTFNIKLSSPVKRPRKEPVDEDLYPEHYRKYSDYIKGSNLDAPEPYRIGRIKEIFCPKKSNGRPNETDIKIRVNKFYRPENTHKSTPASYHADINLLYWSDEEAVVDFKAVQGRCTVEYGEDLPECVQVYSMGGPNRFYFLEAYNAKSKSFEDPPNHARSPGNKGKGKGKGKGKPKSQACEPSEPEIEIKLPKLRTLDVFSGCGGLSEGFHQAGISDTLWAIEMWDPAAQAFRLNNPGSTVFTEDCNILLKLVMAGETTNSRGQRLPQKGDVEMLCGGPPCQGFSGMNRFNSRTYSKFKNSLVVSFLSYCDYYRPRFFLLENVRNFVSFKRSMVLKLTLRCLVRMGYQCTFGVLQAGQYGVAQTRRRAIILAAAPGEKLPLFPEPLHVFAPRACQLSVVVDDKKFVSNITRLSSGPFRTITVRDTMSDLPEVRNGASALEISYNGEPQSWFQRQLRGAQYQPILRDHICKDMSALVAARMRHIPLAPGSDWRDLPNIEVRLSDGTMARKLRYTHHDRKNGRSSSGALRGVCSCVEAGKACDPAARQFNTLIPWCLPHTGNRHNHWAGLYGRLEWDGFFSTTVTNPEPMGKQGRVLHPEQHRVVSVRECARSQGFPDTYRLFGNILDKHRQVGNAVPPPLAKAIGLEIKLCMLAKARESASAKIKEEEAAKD

The molecule GUCCAGUUUUCCCAGGAAUCCCU (ssRNA) [miR-145-5p] showed a Ki with DNMT1 full-length [1] of 2460 nM. In turn, UAUUGCACUUGUCCCGGCCUGU (ssRNA) [miR-92a-3p] came in with a Ki with DNMT1 full-length [1] of 1650 nM. Take GCCAGUGGCGAGGGGCGGCGCGG (ssRNA) [asCEBPα-2]: the binding result in the data set with GST-DNMT1 fragment 4 [2] was “binds”. The results for the inhibition constant Ki in the data set with DNMT1 full-length [1] (setting [9]) and with DNMT1 full-length [3] (setting [9]) were 434 nM and 91.7 nM, respectively. UCGUGAUAGGGGU (ssRNA) [5p-5] came in with a Ki with DNMT1 full-length [4] of 124 nM. On to CAAAGUGCUUACAGUGCAGGUAG (ssRNA) [miR-17-5p], for which the figures for the inhibitory constant (Ki) with DNMT1 full-length [1] and with DNMT1 full-length [3] were 317 nM and 385 nM, respectively. The molecule AGGUUGGGAUCGGUUGCAAUGCU (ssRNA) [miR-92a-1-5p] had a Ki with DNMT1 full-length [1] of 476 nM. Same read-out and setting: as for UAAAGUGCUUAUAGUGCAGGUAG (ssRNA) [miR-20a-5p], the figure is 560 nM; as for UAGCUUAUCAGACUGAUGUUGA (ssRNA) [miR-21-5p], 1290 nM.

With UUAAUGCUAAUCGUGAUAGGGGU (ssRNA) [miR-155-5p], the inhibition constant Ki with DNMT1 full-length [5] was determined as 27.9 nM. For the molecule ACUCAAAAUGGGGGCGCUUUCC (ssRNA) [miR-373-5p], the affinity in the data set with DNMT1 full-length [1] corresponds to a Ki of 298 nM. In turn, UAGCAGCACGUAAAUAUUGGCG (ssRNA) [miR-16-5p] yielded an inhibitory constant (Ki) with DNMT1 full-length [1] of 463 nM.

With CCGGGAAGCAGGCGGCGUCAGGC (ssRNA) [asCEBPα-1HPE], in the data set with DNMT1 full-length [1] (label: 5'-33P in pull-down), affinity was put at a Ki of 918 nM. For the same molecule, the binding result with GST-DNMT1 fragment 4 [6] is “binds”. In the data set with DNMT1 full-length [1], UGUGCAAAUCCAUGCAAAACUGA (ssRNA) [miR-19b-3p] gave a Ki of 3320 nM. Take UGAGAACUGAAUUCCAUGGGUU (ssRNA) [miR-146a-5p]: in the data set with DNMT1 full-length [1], the affinity, expressed as Ki, was 1030 nM. Still for that read-out and setting: as for AUAAAGCUAGAUAACCGAAAGU (ssRNA) [miR-9-3p], the figure is 1600 nM. Turning to GACAGUGGAGAGGGGCGGAGCGG (ssRNA) [asCEBPα-2HPE], in the data set with GST-DNMT1 fragment 4 [7], the binding result is “binds”. Further, the inhibitory constant (Ki) with DNMT1 full-length [1] (label: 5'-33P in pull-down, predicted to lack stem-loop) was 135 nM.

UCGGAUCCGUCUGAGCUUGGCU (ssRNA) [miR-127-3p] gave a Ki with DNMT1 full-length [1] of 269 nM. Take CCGGGACGCAGGCGGCGUCAGGC (ssRNA) [asCEBPα-1]: in the data set with DNMT1 full-length [1] (setting [9]), the Ki was 2000 nM. For the same molecule, in the data set with GST-DNMT1 fragment 4 [8], the binding result is “binds”.

UCUUUGGUUAUCUAGCUGUAUGA (ssRNA) [miR-9-5p] registered a Ki with DNMT1 full-length [1] of 493 nM.

For orientation: Ki means the dissociation constant of the complex between target and ligand, obtained from inhibition or displacement.
